Source: paper PMC7014971

Molecular target: full-length human BRAF, wild type (insect cell-produced) (human) (UniProt P15056)
Test: SEC-MALS

Chain of UniProt P15056 (P15056 whole entry): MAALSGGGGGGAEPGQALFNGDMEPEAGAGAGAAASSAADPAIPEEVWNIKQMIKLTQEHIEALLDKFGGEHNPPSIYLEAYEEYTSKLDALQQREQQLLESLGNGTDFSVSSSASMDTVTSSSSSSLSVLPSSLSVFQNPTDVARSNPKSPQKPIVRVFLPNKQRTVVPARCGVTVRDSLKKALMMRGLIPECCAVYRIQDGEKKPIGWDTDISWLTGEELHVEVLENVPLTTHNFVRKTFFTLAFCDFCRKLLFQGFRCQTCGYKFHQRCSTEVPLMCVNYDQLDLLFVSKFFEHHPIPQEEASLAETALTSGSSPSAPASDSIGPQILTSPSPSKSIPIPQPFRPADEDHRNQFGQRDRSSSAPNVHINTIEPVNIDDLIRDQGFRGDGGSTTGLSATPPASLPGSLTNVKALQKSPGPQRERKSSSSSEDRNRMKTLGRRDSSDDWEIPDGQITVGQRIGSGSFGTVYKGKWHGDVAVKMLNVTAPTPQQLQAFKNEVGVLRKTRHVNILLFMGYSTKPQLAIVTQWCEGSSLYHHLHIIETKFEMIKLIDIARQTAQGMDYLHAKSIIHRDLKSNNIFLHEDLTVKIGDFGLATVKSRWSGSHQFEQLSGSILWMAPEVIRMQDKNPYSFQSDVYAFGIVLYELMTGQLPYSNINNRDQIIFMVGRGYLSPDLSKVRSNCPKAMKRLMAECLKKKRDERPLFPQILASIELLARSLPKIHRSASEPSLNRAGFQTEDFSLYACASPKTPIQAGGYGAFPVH

insect cell-derived 14-3-3ε,ζ dimer (complex)
stoichiometry N (14-3-3 dimer per BRAF): 1
